The record followed here is patent US20160024513, “MAIZE STRESS RELATED TRANSCRIPTION FACTOR 18 AND USES THEREOF” (PIONEER HI-BRED INTERNATIONAL INC., published 2016).

What all share (conditions): tags: 20 aa N-terminal tag incl; 6xHis (pET28)
The target of data set [1] is ZmSRTF18 (SPL VAR4) (C71S) (Zea mays, C71S). In words: EMSA; DTT, 300 mM KCl, salmon DNA; binding to DRE stated specific versus this mutant. On the procedure:
(§1) In gel-shift assays, also known as electrophoretic mobility shift assays (EMSA), DNA with bound protein will traverse the gel more slowly than DNA without bound protein. Thus, gel shift assays indicate whether a protein binds to a specific DNA fragment. The gel shift assays of FIG. 6 were performed using the Molecular Probes™ EMSA Kit (E33075), which provides background information, materials, and methods for gel shift experiments. The assays were done in the presence or in the absence of DTT (dithiothreitol), as it is not certain which condition most accurately reflects the in vivo condition. DNA was stained with SYBR® Green according to the manufacturer's protocol.
(§2) To determine whether DNA binding was specific, and to examine binding of the less severely truncated proteins ZmSRTF18-del (ALT5) (SEQ ID NO: 26) and ZmSRTF18-del (ALT6) (SEQ ID NO: 27), further gel shift experiments were performed in the presence of DTT with the same 34 bp DNA fragment, or with the corresponding fragment that had the DRE element ACCGAC mutated to TTTTTT. Conditions were also optimized to reduce nonspecific binding by adding 300 mM KCl and sheared salmon DNA.
Background: In EMSA bound probe runs differently from free probe, usually more slowly.

Data set [2] addresses ZmSRTF18-del (ALT6) (Zea mays). The description is as above. On the procedure: as §1, §2
Data set [3] deals with ZmSRTF18 (SPL VAR4) (Zea mays). Described as above. On the procedure: as §1, §2
ZmSRTF18 (SPL VAR4) (Zea mays), sequence (chain, as listed by the source): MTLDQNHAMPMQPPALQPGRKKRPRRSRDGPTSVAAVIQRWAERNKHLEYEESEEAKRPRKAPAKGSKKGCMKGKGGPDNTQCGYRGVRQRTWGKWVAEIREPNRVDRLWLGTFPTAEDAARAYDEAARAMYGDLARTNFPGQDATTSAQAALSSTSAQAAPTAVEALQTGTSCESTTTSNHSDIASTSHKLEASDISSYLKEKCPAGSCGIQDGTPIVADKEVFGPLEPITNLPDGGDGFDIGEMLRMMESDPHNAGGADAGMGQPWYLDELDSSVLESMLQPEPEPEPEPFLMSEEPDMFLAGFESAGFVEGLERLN
Data set [4] deals with ZmSRTF18 (SPL VAR4) (C71S) (Zea mays, C71S). Description: EMSA; with or without DTT; strong and specific also with 300 mM KCl and salmon DNA. On the procedure: as §1, §2
ZmSRTF18 (SPL VAR4) (C71S) (Zea mays, C71S), sequence (chain, as listed by the source C71S | C71S C71S): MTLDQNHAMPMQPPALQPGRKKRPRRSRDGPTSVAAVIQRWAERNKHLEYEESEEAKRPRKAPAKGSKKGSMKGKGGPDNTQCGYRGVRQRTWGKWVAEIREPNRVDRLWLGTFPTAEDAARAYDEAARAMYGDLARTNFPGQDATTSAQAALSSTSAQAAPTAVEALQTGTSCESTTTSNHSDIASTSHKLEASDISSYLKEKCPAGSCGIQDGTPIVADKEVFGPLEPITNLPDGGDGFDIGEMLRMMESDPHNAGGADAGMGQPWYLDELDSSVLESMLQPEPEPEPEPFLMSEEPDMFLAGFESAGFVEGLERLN
The target in data set [5] is ZmSRTF18 (SPL VAR4) (Zea mays). The description is as above. On the procedure: as §1, §2
The target of data set [6] is ZmSRTF18-del (ALT2) (Zea mays). In words: EMSA; with or without DTT; obvious gel shift. On the procedure: as §1, §2
ZmSRTF18-del (ALT2) (Zea mays), sequence (chain, as listed by the source): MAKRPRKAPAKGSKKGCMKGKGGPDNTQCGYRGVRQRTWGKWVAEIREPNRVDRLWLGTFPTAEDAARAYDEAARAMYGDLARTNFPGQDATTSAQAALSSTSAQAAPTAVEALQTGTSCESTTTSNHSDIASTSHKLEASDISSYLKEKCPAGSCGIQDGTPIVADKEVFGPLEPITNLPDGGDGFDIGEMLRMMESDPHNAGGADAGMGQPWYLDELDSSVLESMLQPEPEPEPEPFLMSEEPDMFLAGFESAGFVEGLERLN
For data set [7], the target named is ZmSRTF18-del (ALT6) (Zea mays). Description: EMSA; DTT, 300 mM KCl, sheared salmon DNA; strong specific binding. On the procedure:
as §1, §2

The target in data set [8] is ZmSRTF18-del (Zea mays). Description: EMSA; no DTT; did not appear to bind. On the procedure: as §1
ZmSRTF18-del (Zea mays), sequence (chain, as listed by the source): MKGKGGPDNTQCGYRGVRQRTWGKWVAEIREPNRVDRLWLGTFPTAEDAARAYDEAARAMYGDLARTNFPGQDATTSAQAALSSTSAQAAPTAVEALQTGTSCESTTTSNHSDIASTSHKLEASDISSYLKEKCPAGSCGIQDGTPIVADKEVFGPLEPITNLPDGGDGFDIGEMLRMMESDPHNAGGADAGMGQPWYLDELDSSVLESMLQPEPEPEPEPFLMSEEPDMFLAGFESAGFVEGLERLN

ZmSRTF18-del (ALT6) (Zea mays), sequence (chain, as listed by the source): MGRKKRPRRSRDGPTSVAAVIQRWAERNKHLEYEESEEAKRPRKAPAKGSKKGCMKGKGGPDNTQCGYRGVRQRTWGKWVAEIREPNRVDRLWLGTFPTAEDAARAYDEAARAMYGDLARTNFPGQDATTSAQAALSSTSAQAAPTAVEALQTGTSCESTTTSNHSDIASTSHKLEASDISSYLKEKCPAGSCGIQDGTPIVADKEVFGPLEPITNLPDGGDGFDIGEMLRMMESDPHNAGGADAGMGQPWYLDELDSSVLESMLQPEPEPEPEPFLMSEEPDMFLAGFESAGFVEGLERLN

B1: RAB17 DRE mutant fragment (dsDNA)
DNA 1: TAAATTCAGCCTGTTTTTTCGCCTGCATTGAATA
DNA 2: TATTCAATGCAGGCGAAAAAACAGGCTGAATTTA
For the molecule B1, the binding result in data set [1], in data set [2] and in data set [3] was “no binding” each time.

B2: RAB17 promoter DRE fragment (dsDNA)
DNA 1: TAAATTCAGCCTGACCGACCGCCTGCATTGAATA
DNA 2: TATTCAATGCAGGCGGTCGGTCAGGCTGAATTTA
For B2, the binding result in data set [4] is given as “binds”; in data set [5], “binds”; in data set [6] it was “binds”; in data set [7], “binds”; in data set [8], “no binding”.
